The assay has as its target CA tri-hexamer_(center) (HIV-1). Nature of the assay: ITC.

As to “NUP153^1411–1475/1425–1464△ peptide (25 aa) (from UniProt P49790 1411-1475)”, the Kd amounted to 870 nM.

For orientation: Kd means a measure of binding affinity in units of concentration.

(Values after publication PMC10068764.)
